The target in data set [1] is T1, PbrERF114 (pear, cultivar Cuiguan?, UniProt A0A5H2MWQ4 1-250). Kind of data set: BLI; saturated at 8382 nM; sentence names PbrERF24-His, but context and legend are PbrERF114; BLI: 137 mM NaCl, 4.3 mM Na2HPO4, 2.7 mM KCl, 1.4 mM KH2PO4, 0.02% Tween-20, pH 7.2 (PBS), streptavidin sensors, temperature not given; EMSA: LightShift Chemiluminescent EMSA kit, buffer not given. The following applies: protein: recombinant; tags: His; pCold-TF vector (trigger factor fusion implied); label: biotin. On the technique in general: Biolayer interferometry detects binding as a change in optical thickness at a sensor tip.

The target of data set [2] is T1, PbrERF114. Kind of data set: EMSA; signal decreased with 10x, 50x, 200x cold probe; BLI: 137 mM NaCl, 4.3 mM Na2HPO4, 2.7 mM KCl, 1.4 mM KH2PO4, 0.02% Tween-20, pH 7.2 (PBS), streptavidin sensors, temperature not given; EMSA: LightShift Chemiluminescent EMSA kit, buffer not given. The following applies: protein: recombinant; tags: His; pCold-TF vector (trigger factor fusion implied); label: biotin. For orientation: Mobility shift assays separate free from complexed probe on a gel.

T1 sequence (A0A5H2MWQ4 entry or part of it): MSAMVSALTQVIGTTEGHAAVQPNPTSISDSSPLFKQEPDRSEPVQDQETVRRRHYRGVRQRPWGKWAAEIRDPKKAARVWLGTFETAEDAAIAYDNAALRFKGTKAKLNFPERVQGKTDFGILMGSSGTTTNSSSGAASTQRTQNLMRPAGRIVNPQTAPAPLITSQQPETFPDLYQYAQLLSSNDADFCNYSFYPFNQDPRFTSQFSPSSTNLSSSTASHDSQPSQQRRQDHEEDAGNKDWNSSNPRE

B1: PbrERF24 promoter probe (dsDNA)
DNA 1: CCAGTTTACAATGGTGGCCAAGATTGTAAT
DNA 2: ATTACAATCTTGGCCACCATTGTAAACTGG
As for B1, the Kd with PbrERF114 [1] was less than 1000 nM.

B2: PbrACS3 promoter probe (PbrERF114 EMSA) (dsDNA)
DNA 1: TTACCATCTTAGGTGGCAGATGAGTTGGAC
DNA 2: GTCCAACTCATCTGCCACCTAAGATGGTAA
For the molecule B2, the binding result in the data set with PbrERF114 [2] is on record as “binds”.

A word on the Kd: it is a measure of binding affinity in units of concentration.

The record behind these values is PMC11566906, “Transcription factor PbrERF114 is involved in the regulation of ethylene synthesis during pear fruit ripening”.
